According to paper PMC6364671:

Molecular target: recombinant human CD74 (C27S) (human) (UniProt P04233)
Assay: ELISA

Substance	IC50
DRα1-mMOG-35-55	937 nM
DRα1-hMOG-35-55 (from UniProt P01903 15-97)	1640 nM
